Values quoted from earlier work, collected in paper PMC3883350.
Read-outs that look alike come from different tables or passages of the source.

How the values were obtained:
VIP (Homo sapiens) [1] = molecular target: VIP (Homo sapiens) (UniProt P01282)
PACAP (Homo sapiens) [2] = molecular target: PACAP (Homo sapiens) (UniProt P18509)
VIP (Homo sapiens) [3] = molecular target: VIP (Homo sapiens) (UniProt P01282); remark: listed apart in the source
PACAP (Homo sapiens) [4] = molecular target: PACAP (Homo sapiens) (UniProt P18509); remark: listed apart in the source
VIP (Homo sapiens) [5] = molecular target: VIP (Homo sapiens) (UniProt P01282); remark: listed apart in the source
PACAP (Homo sapiens) [6] = molecular target: PACAP (Homo sapiens) (UniProt P18509); remark: listed apart in the source

UniProt P01282, sequence (P01282 125-152): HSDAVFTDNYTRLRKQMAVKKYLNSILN
UniProt P18509, sequence (P18509 82-129): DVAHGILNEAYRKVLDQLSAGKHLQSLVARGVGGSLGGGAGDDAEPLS

## PAC1 (from UniProt P41586)
VIP (Homo sapiens) [1]
  Kd: > 500 nM
PACAP (Homo sapiens) [2]
  Kd: 0.5 nM

## VPAC1 (from UniProt P32241)
VIP (Homo sapiens) [3]
  Kd: 1 nM
PACAP (Homo sapiens) [4]
  Kd: 1 nM

## VPAC2 (from UniProt P41587)
VIP (Homo sapiens) [5]
  Kd: 1 nM
PACAP (Homo sapiens) [6]
  Kd: 1 nM
